Assay results reported in patent US11795460B2, “Compositions and methods for TTR gene editing and treating ATTR amyloidosis” (Intellia Therapeutics, Inc., priority 2017, dated 2023).
Strand notation (5' to 3'): a small letter for the sugar, then the base; units joined by * are phosphorothioate-linked, units joined directly phosphodiester-linked; [ ] holds rarer units or linkages, { } end groups; capitals alone tell only the bases. m = 2'-O-methyl; r = 2'-OH (RNA)

B1: G000500: TTR sgRNA modified sequence, Human, SEQ ID No. 107; guide sequence of CR003337 (nucleic acid)
guide: mC*mC*mA*rGrUrCrCrArGrCrArArGrGrCrArGrArGrGrGrUrUrUrUrArGrAmGmCmUmAmGmAmAmAmUmAmGmCrArArGrUrUrArArArArUrArArGrGrCrUrArGrUrCrCrGrUrUrArUrCrAmAmCmUmUmGmAmAmAmAmAmGmUmGmGmCmAmCmCmGmAmGmUmCmGmGmUmGmCmU*mU*mU*mU
B2: G000501: TTR sgRNA modified sequence, Human, SEQ ID No. 108; guide sequence of CR005300 (nucleic acid)
guide: mU*mC*mA*rCrArGrArArArCrArCrUrCrArCrCrGrUrArGrUrUrUrUrArGrAmGmCmUmAmGmAmAmAmUmAmGmCrArArGrUrUrArArArArUrArArGrGrCrUrArGrUrCrCrGrUrUrArUrCrAmAmCmUmUmGmAmAmAmAmAmGmUmGmGmCmAmCmCmGmAmGmUmCmGmGmUmGmCmU*mU*mU*mU

Legend:
[1] = tested on: TTR; experiment: TTR editing in primary human hepatocytes treated with LNP formulated Spy Cas9 mRNA (SEQ ID NO: 2) and sgRNAs (Table 16); type: cell-based; conditions: LNP formulated Spy Cas9 mRNA (SEQ ID NO: 2) and sgRNA, 72 hours
How it was run: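 Primary human hepatocytes, 24 h after plating, were treated with LNPs carrying Cas9 mRNA and sgRNA (1:1 by weight), preincubated 5 min at 37° C in medium with 6% cyno serum, across an 8-point 2-fold dose range. Editing was quantified as percent reads with indels or substitutions by amplicon sequencing.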

[2] = tested on: TTR; experiment: TTR editing in primary human hepatocytes transfected with Spy Cas9 protein and sgRNAs (Table 12); type: cell-based; conditions: primary human hepatocytes transfected with Spy Cas9 protein (RNP) and sgRNAs
How it was run: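 Primary human hepatocytes (33,000 cells/well) lipofected (RNAiMAX) with RNP of Spy Cas9 (10 nM) and modified sgRNA (10 nM). Genomic DNA harvested at 24, 48, or 72 hours; target amplicons sequenced on Illumina MiSeq, editing = reads with indels or substitutions over total reads.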

[3] = tested on: TTR; experiment: TTR editing in primary cyno hepatocytes treated with LNP formulated Spy Cas9 mRNA (SEQ ID NO: 2) and sgRNAs (Tables 17, 18); type: cell-based, cynomolgus monkey; conditions: Table 17, LNP formulated Spy Cas9 mRNA (SEQ ID NO: 2) and sgRNA, 12.5 ng mRNA, 3.9 nM sgRNA, 72 hours
How it was run: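 Primary cynomolgus hepatocytes, 24 h after plating, dosed with LNPs (N:P about 4.5 or 6, mRNA:gRNA 1:1 by weight) pre-incubated 5 min at 37° C. in medium with 6% cyno serum, in an 8-point 2-fold dose response. Editing = indel/substitution reads over total reads by amplicon MiSeq sequencing.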

Row | Molecule | 12.5 ng mRNA, 3.9 nM sgRNA Avg % Edit [1] | Avg % Deletion [2] | Avg % Edit [2] | Avg % Insert [2] | 12.5 ng mRNA, 3.9 nM sgRNA Avg % Edit [3]
1 | B1 | 23.57% | 3.83% | 65.53% | 62.00% | 10.47%
2 | B2 | 32.30% | 6.00% | 60.93% | 55.13% | 1.37%
